Experimental data reported in patent publication US20120141504A1 (MAYO FOUNDATION FOR MEDICAL EDUCATION AND RESEARCH, published 2012).

Target: T1, human B7-H3.1 expressed on 293 cells transfected with pcDNA/B7-H3 (human, UniProt Q5ZPR3 29-534)
T1 sequence: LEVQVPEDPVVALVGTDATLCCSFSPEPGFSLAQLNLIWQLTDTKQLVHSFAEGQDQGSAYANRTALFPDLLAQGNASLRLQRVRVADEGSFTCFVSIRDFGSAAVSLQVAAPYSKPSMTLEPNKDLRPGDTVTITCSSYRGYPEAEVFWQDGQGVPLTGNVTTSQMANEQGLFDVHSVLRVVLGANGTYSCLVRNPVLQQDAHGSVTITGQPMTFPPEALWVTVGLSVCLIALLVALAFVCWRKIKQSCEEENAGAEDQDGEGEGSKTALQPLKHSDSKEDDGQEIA
Experiment: flow cytometry on transfected 293 cells
Protocol: After a 45 min incubation, cells were washed and cultured for 45 min with fluorescein isothiocyanate (FITC)-conjugated goat anti-mouse Ig F(ab′)₂ (BioSource, Camarillo, Calif.). For two color staining, cells were washed and further incubated with phycoerythrin (PE)-conjugated mAb specific for CD3, CD14, or CD19 (PharMingen, San Diego, Calif.). For the analysis of CD3+, CD19+, and CD 14+ cells, peripheral blood mononuclear cells (PBMC) (untreated or activated as described below) were stained with anti-B3-H7 antiserum (green fluorescence) and either anti-CD3, anti-CD19, or anti-CD14 monoclonal antibody (mAb) (orange fluorescence). The proportion of B7-H3 expressing cells (green fluorescence) within the CD3+, the CD19+, and the CD 14+ populations was assessed by gating the flow cytometer on the relevant populations (orange fluorescence). Expression of a B7-H3 counter-receptor was analyzed by incubation of cells with B7-H3Ig (5 μg/sample) with subsequent staining using FITC-conjugated goat anti-mouse Ig F(ab′)₂. Single or double stained cells were analyzed using the Becton Dickinson FACScan (Mountain View, Calif.).

B1: ICOSIg fusion protein (Fc fusion, UniProt Q9Y6W8 21-140, looked up)
chain: EINGSANYEMFIFHNGGVQILCKYPDIVQQFKMQLLKGGQILCDLTKTKGSGNTVSIKSLKFCHSQLSNNSVSFFLYNLDHSHANYYFCNLSIFDPPPFKVTLTGGYLHIYESQLCCQLK
notes: extracellular domain; Described as an analogous fusion protein prepared by a method similar to that for B7-H3Ig (extracellular domain fused to mouse IgG2a Fc); not shown: Fc constant region of mouse IgG2a
B1: no binding (tested: 5 µg/sample).
